# Assay results published in the nanobody polyreactivity screen of Harvey et al. (2022).
# Assay: yeast display, Sf9 membrane polyspecificity reagent, FACS + sequencing; frameworks hold sequencing errors
# In short: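 Polyreactivity labels are assigned by the sorting gate from which each nanobody was recovered. The gates were low and high (top ~1%), set on anti-HA fluorescence for expression and streptavidin fluorescence for reagent binding. Before sorting, galactose-induced (36–48 hours) yeast display cells were stained for 1 hour at 4 °C with 10% biotinylated, detergent-solubilized Sf9 membrane reagent.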
row,Sequence,polyreactivity (PSR sort gate)
1,QVQLVESGGGLVQAGGSLRLSCAASGSIFIPNAMGWYRQAPGKERELVAAISLSDTTTYYADSVKGRFTISRDNAKNTVYLQMNSLKPEDTAVYYCNKLTYGRVWDHHYDYWGQGTQVTVSS,low polyreactivity
2,QVQLVESGGGLVQAGGSLRLSCAASGSIFIPNAMGWYRQAPGTERELVAAISLSDTTTYYADSVKGRFTISRDNAKNTVYLQMNSLKPEDTAVYYCAADYWFYPTSPDMDYWGQGTQVTVSS,low polyreactivity
3,QVQLVESGGGLVQAGGSLRLSCAASGSIFIPYTMGWYRQEPGKARELVAAITKRGGSTYYADSVKGRFTISRDNAKNSVYLQMNSLKPEDTAVYYCNAIKYDPGRWAEYGYWGQGTQVTVSS,high polyreactivity
4,QVQLVESGGGLVQAGGSLRLSCAASGSIFIQYAMGWYRQAPGKERELVAAINSSGGRTYYADSVKGRFTISRDNAKNTVYLQMNRLKPEDTAVYYCAADHGSSFDWGQGTQVTVSS,low polyreactivity
5,QVQLVESGGGLVQAGGSLRLSCAASGSIFITYAMGWYRQAPGKDRELVATITSRSGGTYYADSVKGRFTISRDNAKNTVYLQMNSLKQEDTAVYYCNAVYTYPVFHGMGYWGQGTQVTVSS,high polyreactivity
6,QVQLVESGGGLVQAGGSLRLSCAASGSIFIVNAMGWYRQAPGKERELVAAITWSGGNTYYADSVKGRFTISRDNAKNTVYLQMNSLKPEDTAVYYCNSYWRGAFDYWGQGTQVTVSS,high polyreactivity
7,QVQLVESGGGLVQAGGSLRLSCAASGSIFIVYAMGWYRQAPGKERELVATITSGGSTNYADSVKGRFTISRDNAKNTVYLQMNSLKPEDTAVYYCAAESYWGSGVVPGYDYWGQGTQVTVSS,low polyreactivity
8,QVQLVESGGGLVQAGGSLRLSCAASGSIFIYNAMGWYRQAPGKERELVASITYRGGSTYYADSVKGRFTISRDKAKNTVYLQMNSLKPEDTAVYYCNAPQYFSYSWPYPREYDYWGQGTQVTVSS,high polyreactivity
9,QVQLVESGGGLVQAGGSLRLSCAASGSIFIYNVMGWYRPAPGKERELVATSRGSGGSTYYADSVKGRFTISRDTAKNTVYLHMNSLKPEDTAVYFCCRRDYPYQWGRAYNYWGQGTQVTVSS,high polyreactivity
10,QVQLVESGGGLVQAGGSLRLSCAASGSIFIYYAMGWYRQAPGKERELVAAITWRSGSTYYADSVKGRFTISRDNAKNTVYFQRNSLKPEDNAVNYCAAYAWTATDSARPYGYDYWGQGTQVTVSS,low polyreactivity
11,QVQLVESGGGLVQAGGSLRLSCAASGSIFKAYAMGWYRQAPGKERELVAAISTSDGSTYYADSVKGRFTISRDNAKNNVYLLMNSLKPEDTAVYYCATEYDYWDDSYDYWGQGTQVTVSS,low polyreactivity
12,QVQLVESGGGLVQAGGSLRLSCAASGSIFKAYAMGWYSQAPGKERELVAAITWSGGSTYYADSVKGRFTISRDNAKYTVYLQMNSLKPEDTAVYYCAADRLEGYYEDDATGFDYWGQGTQVTVSS,low polyreactivity
13,QVQLVESGGGLVQAGGSLRLSCAASGSIFKCNAMGWYRQAPGKERELVASITRSGGSTYYADSVKGRFTISRDNAKNTVYLQMNSLKPEDTAVYYCARSYGWYRWAGYDYWGQGTQVTVSS,high polyreactivity
14,QVQLVESGGGLVQAGGSLRLSCAASGSIFKFYAMGWYRQAPGKEREMVAVITYIGGSTYYADSVKGRFTISRDNAKNTVYLQMNSLKPEDTAVYYCNKDGAFHWVGSDPVYLFEYWGQGTQVTVSS,low polyreactivity
15,QVQLVESGGGLVQAGGSLRLSCAASGSIFKGNAMGWYRQAPGKERDLVAAISRSGGSTYYADSVKGRFTISRDNAKNTVYLQMNSLKPEDTAVYYCNAVRRNTVRSKGRYDYWGQGTQVTVSS,high polyreactivity
16,QVQLVESGGGLVQAGGSLRLSCAASGSIFKINAMGWYRQAPGKEREWVAAITRSGGSTYYADSVKGRFTISLDNAKNTVYLQMNSLKPEDTAVYYCNASTSRSTSLSSRFYYWGQGTQVTVSS,high polyreactivity

row,Sequence,polyreactivity (PSR sort gate)
1,QVQLVESGGGLVQAGGSLRLSCAASGSIFKINTMGWYRQAPGKERELVAAISKRGGSTYYADSVKGRFTISRDNAKNTVYLQMNSLKTEDTAVYYCAARQFYKYYYWGQGTQVTVSS,high polyreactivity
2,QVQLVESGGGLVQAGGSLRLSCAASGSIFKPYAMGWYRQAPGKERELVAVISWRGGSTYYADSVKGRFTISRDYAKNTVYFQMNSLKPEDTAVYYCAARRYRYFDGTVPLDYWGQGTQVSVSS,high polyreactivity
3,QVQLVESGGGLVQAGGSLRLSCAASGSIFKRNAMVSYRQAPGKERELVASISSGGSTHYADSVKGRFTISRDNAKNTVYLQMNSLTPEDTAVYYCAATSIRWSVCSFRRDYWGQGTQVTVSS,low polyreactivity
4,QVQLVESGGGLVQAGGSLRLSCAASGSIFKRNDMGWYRQAPGKERELVAAITWSGGSTYYADSVKGRFTISRDNAKNTVYLQMNSLKPEDTAVYYCNAARDDWYIIKYDYWGQGTQVTVSS,low polyreactivity
5,QVQLVESGGGLVQAGGSLRLSCAASGSIFKRNDMGWYRQAPGKERELVASISWGGTSTYYADSVKGRLTISRDLAKNTVYLKMYSLKPEDTAVYYCAARGLYTYKTYDDWGQGTLVTVSS,low polyreactivity
6,QVQLVESGGGLVQAGGSLRLSCAASGSIFKRYAMGWDRQAPGKERELVASISSRGSSTNYADSVKGRFTISRDNAKNTVYLQMNSLKPEDTAVYYCAAEVYRGKYWSTYRGGDYWGQGTQVTVSS,high polyreactivity
7,QVQLVESGGGLVQAGGSLRLSCAASGSIFKTNARGLYRQAPGTEREFVAAISWSGGSTYADSVKGRFTISRDTAKNTVYLQMNSLKPEDTAVYYCAAVDYYYYGVYSSWYDYWGQGTQVTVSS,low polyreactivity
8,QVQLVESGGGLVQAGGSLRLSCAASGSIFKTYAMGWYRQAPGKERELVAAISRSTSRTYYADSVKGRFTISRDNAKNTVYLQMNSLKPEDTAVYYCAAHRSTRGTKLYYWGQGTQVTVSS,high polyreactivity
9,QVQLVESGGGLVQAGGSLRLSCAASGSIFKVYAMGWYRQAPGKERELVAAITGGGRTYYADSVKGRFTISRDNAKNTVYLQMNSLKPEDTAVYYCNAVRGGYHVRYDYWGQGTQVTVSS,high polyreactivity
10,QVQLVESGGGLVQAGGSLRLSCAASGSIFKVYAMGWYRQAPGKEREWVAAITWRGGSTYYADSVKGRFTISRDNAKNTVYLQMKSLKPEDTAVYYCGTEYCWKYDYWGQGTQVTVSS,low polyreactivity
11,QVQLVESGGGLVQAGGSLRLSCAASGSIFKWYAMGWYRQAPGKEREFVAAITNGGGSTYYADSVKGRFTISRDNAKNTVYLQMNSLKPEDTAVYYCAKDGHSYYPWEYDYWGQGTQVTVSS,low polyreactivity
12,QVQLVESGGGLVQAGGSLRLSCAASGSIFKWYTMGWYRQAPGKERELVAAITWGGGSTYYADSVKGRFTISRDNEKNTVYLQMNSLKPEDTAVYYCNREGWHYGPYGYWGQGTLVTVSS,low polyreactivity
13,QVQLVESGGGLVQAGGSLRLSCAASGSIFKYFTMGWYRHAPGKERELVAYISSGGSTKYADSVKGRFTISRDNAKNTVYLQMNSLKPEDTAVYYCAKRYYYFYPDYDYWGQGTQVTVSS,high polyreactivity
14,QVQLVESGGGLVQAGGSLRLSCAASGSIFKYNAMGWYRQAPGKERELVAAIRWSGVGTRYADSVKGRFTISRDNAKNTVYLQMNSLKPEDTAVYYCAADVTKYHDGHEYDYWGQGTQVTVSS,low polyreactivity
15,QVQLVESGGGLVQAGGSLRLSCAASGSIFKYYAMGWYRQAPGKERELVAAISNGGSTNYADSLKGRFTISRDNAKNTVYLQMNSLKPEDTAVYYCAAGWFGYSAKYDYWGQGTRVTVSS,high polyreactivity
